# Measured values taken from patent publication US20020114805A1.
# B1: chimeric mouse/human IgG1 anti-platelet mAb (7E3) (antibody, INN chains, looked up, V domains shown)
# VH: EVQLQQSGTVLARPGASVKMSCEASGYTFTNYWMHWVKQRPGQGLEWIGAIYPGNSDTSYIQKFKGKAKLTAVTSTTSVYMELSSLTNEDSAVYYCTLYDGYYVFAYWGQGTLVTVSA
# VL: EIVLTQSPVTLSVTPGDSVSLSCRASRDISNNLHWFQQTSHESPRLLIKYASQSMSGIPSRFSGSGSGTDFTLSINSVETEDFGMYFCQQTNSWPYTFGGGTKLEIK
# modifications: chimeric IgG1
# Tests used:
# [1] = target: human lymphotoxin (TNFβ) (human) (UniProt P01374); assay: cell-based or functional assay
# Chain of human lymphotoxin (TNFβ) (human) (P01374 35-205 limits assumed): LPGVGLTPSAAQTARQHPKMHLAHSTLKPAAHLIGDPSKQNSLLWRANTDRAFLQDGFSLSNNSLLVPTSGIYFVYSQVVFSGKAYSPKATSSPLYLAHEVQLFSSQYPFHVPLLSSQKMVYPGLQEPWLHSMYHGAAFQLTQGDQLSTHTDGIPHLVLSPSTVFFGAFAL
# [2] = target: human tumor necrosis factor-α (TNFα) (human) (UniProt P01375); assay: cell-based or functional assay
# Chain of human tumor necrosis factor-α (TNFα) (human) (P01375 77-233): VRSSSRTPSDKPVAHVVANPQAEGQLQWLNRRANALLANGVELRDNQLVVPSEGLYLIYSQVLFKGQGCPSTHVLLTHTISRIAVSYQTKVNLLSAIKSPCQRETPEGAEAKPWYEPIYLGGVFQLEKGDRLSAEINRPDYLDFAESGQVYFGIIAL
molecule,measurement,setting,value
p75P-sf2 TNF receptor/IgG1 fusion protein (from UniProt P20333 23-204) (Fc fusion),"concentration to half-inhibit human TNFβ at 2 pM, WEHI 164 cytotoxicity assay",[1],31 pM
p55-sf2 TNF receptor/IgG1 fusion protein (from UniProt P19438) (Fc fusion),"amount needed for the same degree of inhibition of TNFβ cytotoxicity, against p75P-sf2 (fold against p75P-sf2)",[1],3
p75-sf2 TNF receptor/IgG1 fusion protein (from UniProt P20333 23-257) (Fc fusion),"amount needed for the same degree of inhibition of TNFβ cytotoxicity, against p75P-sf2 (fold against p75P-sf2)",[1],3
B1,"IL-6 in supernatant of FS-4 fibroblasts (ng/ml), rhTNF 0.3 ng/ml with 4 µg/ml antibody (no antibody: 1.36)",[2],1.6 ng/mL
same,"IL-6 in supernatant of FS-4 fibroblasts (ng/ml), rhTNF 1.5 ng/ml with 4 µg/ml antibody (no antibody: 2.00)",[2],1.96 ng/mL
same,"IL-6 in supernatant of FS-4 fibroblasts (ng/ml), rhTNF 7.5 ng/ml with 4 µg/ml antibody (no antibody: 2.56)",[2],2.16 ng/mL
